Results from patent US20250114463A1, “LIVER-TARGETED DRUG AND USE THEREOF” (HANMI PHARM. CO., LTD., priority 2021, published 2025).
Bridges are numbered along the chain shown (N, C = ends). Where no end group is shown, it is not given here. [ ]: non-standard residue; d: D form. The star is where a group is joined. Acetyl(2-(4-imidazolyl)) = O=C(Cc1c[nH]cn1)*; Aib = CC(C)(N)C(=O)O

T1: human GIP receptor (human, UniProt P48546 22-466)
T1 sequence (looked up): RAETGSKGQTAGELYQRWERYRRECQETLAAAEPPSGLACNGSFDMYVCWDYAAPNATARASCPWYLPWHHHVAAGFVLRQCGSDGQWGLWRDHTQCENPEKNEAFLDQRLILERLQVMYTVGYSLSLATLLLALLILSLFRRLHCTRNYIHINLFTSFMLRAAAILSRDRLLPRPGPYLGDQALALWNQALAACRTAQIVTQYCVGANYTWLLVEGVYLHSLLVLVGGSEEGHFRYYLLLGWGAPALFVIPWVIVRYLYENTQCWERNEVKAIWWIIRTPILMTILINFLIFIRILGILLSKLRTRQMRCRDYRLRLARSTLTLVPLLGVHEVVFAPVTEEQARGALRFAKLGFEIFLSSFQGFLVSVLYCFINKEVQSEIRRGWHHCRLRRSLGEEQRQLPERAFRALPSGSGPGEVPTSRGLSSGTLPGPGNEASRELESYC


How the values were obtained:
Assay in all cases: cell-based or functional assay
human GCG receptor = human GCG receptor (human, UniProt P47871 26-477)
human GLP-1 receptor = human GLP-1 receptor (human, UniProt P43220 24-463)
human GIP receptor = biological target: T1, human GIP receptor

Sequence of human GCG receptor (P47871 26-477): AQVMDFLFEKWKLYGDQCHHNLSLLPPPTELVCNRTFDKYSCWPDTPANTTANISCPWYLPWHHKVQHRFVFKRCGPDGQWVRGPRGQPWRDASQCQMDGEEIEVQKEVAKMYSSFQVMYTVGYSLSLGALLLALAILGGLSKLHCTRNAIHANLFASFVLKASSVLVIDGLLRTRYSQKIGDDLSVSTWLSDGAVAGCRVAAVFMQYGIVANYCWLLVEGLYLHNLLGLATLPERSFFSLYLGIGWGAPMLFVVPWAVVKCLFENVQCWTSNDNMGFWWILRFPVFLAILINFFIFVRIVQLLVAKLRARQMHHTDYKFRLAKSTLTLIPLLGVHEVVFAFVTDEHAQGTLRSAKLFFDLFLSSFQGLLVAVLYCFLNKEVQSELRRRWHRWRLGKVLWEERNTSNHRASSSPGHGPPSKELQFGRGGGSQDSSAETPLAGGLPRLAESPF

Row | Binder | in vitro Activity Compared to Native Peptide (%), vs Glucagon (human GCG receptor) [%] | in vitro Activity Compared to Native Peptide (%), vs GLP-1 (human GLP-1 receptor) [%] | in vitro Activity Compared to Native Peptide (%), vs GIP (human GIP receptor) [%]
1 | Y[Aib]QGTFTSDYSKYLDECAAKEFVQWLLDHHPSSGQPPPS (bridge 16-20; not fully specified (C-terminus)) [triple agonist of SEQ ID NO: 64] | 60.1 | 64.6 | 92.9
2 | Y[Aib]QGTFTSDYSKYLDEKAAKDFVQWLLDHHPSSGQPPPSC-NH2 (bridge 16-20) [triple agonist of SEQ ID NO: 77] | 12.2 | 38.7 | 35.5
3 | [Acetyl(2-(4-imidazolyl))][Aib]QGTFTSDYSIAMDEIACKDFVNWLLNTK (bridge 16-20; not fully specified (C-terminus)) [triple agonist of SEQ ID NO: 61] | < 0.1 | 59.8 | 2.8
4 | H[Aib]QGTFTSDYSIAMDEIHQKDFVNWLLNTC (bridge 16-20; not fully specified (C-terminus)) [triple agonist of SEQ ID NO: 57] | < 0.1 | 11.7 | 0.3
5 | H[Aib]QGTFTSDYSKYLDEKRQKEFVQWLLDTKC (bridge 16-20; not fully specified (C-terminus)) [triple agonist of SEQ ID NO: 78] | 14 | 51 | 0.12
6 | [Acetyl(2-(4-imidazolyl))][Aib]QGTFTSDYSKYLDECRAKEFVQWLLDHHPSSGQPPPS (bridge 16-20; not fully specified (C-terminus)) [triple agonist of SEQ ID NO: 73] | 5.4 | 22.6 | 3
7 | Y[Aib]QGTFTSDYSKCLDERAAKEFVQWLLDHHPSSGQPPPS (bridge 16-20; not fully specified (C-terminus)) [triple agonist of SEQ ID NO: 69] | 9.6 | 24.3 | 62.8
8 | Y[Aib]QGTFTSDCSKYLDERAAKDFVQWLLDHHPSSGQPPPS (bridge 16-20; not fully specified (C-terminus)) [triple agonist of SEQ ID NO: 72] | 1 | 11.5 | 1.6
9 | Y[Aib]QGTFTSDYSKYLDERACKDFVQWLLDHHPSSGQPPPS (bridge 16-20; not fully specified (C-terminus)) [triple agonist of SEQ ID NO: 71] | 12.7 | 90.1 | 94.7
10 | Y[Aib]QGTFTSDYSKCLDEKRAKDFVQWLLDHHPSSGQPPPS (bridge 16-20; not fully specified (C-terminus)) [triple agonist of SEQ ID NO: 70] | 71.3 | 15.1 | 64.4
11 | H[Aib]QGTFTSDYSKCLDEKRAKEFVQWLLDHHPSSGQPPPS (bridge 16-20; not fully specified (C-terminus)) [triple agonist of SEQ ID NO: 65] | 25.2 | 95.4 | 11.6
12 | Y[Aib]QGTFTSDYSKYLDECRAKDFVQWLLDHHPSSGQPPPS (bridge 16-20; not fully specified (C-terminus)) [triple agonist of SEQ ID NO: 66] | 172 | 15.8 | 17.2
13 | [Acetyl(2-(4-imidazolyl))][Aib]QGTFTSDYSKCLDEKRAKEFVQWLLDHHPSSGQPPPS (bridge 16-20; not fully specified (C-terminus)) [triple agonist of SEQ ID NO: 74] | 0.9 | 12.9 | 1
14 | Y[Aib]QGTFTSDYSKYLDECAAKDFVQWLLDHHPSSGQPPPS (bridge 16-20; not fully specified (C-terminus)) [triple agonist of SEQ ID NO: 67] | 46.2 | 28.5 | 39.8
15 | H[Aib]QGTFTSDYSKYLDEKRQKEFVQWLLNTKC (bridge 16-20; not fully specified (C-terminus)) [triple agonist of SEQ ID NO: 58] | 2.6 | 39.1 | 0.2
16 | H[Aib]QGTFTSDVSKYLDGQAAQEFVAWLLKGC (not fully specified (C-terminus)) [triple agonist of SEQ ID NO: 8] | 0.1 | 14.2 | < 0.1
17 | Y[Aib]QGTFTSDYSKYLDEKRAKDFVQWLLDHHPSSGQPPPSC (bridge 16-20; not fully specified (C-terminus)) [triple agonist of SEQ ID NO: 76] | 47.6 | 10.3 | 11.7
18 | Y[Aib]QGTFTSDYSKCLDEKAAKEFVQWLLDHHPSSGQPPPS (bridge 16-20; not fully specified (C-terminus)) [triple agonist of SEQ ID NO: 68] | 8.8 | 27.9 | 107
19 | [Acetyl(2-(4-imidazolyl))][Aib]QGTFTSDYSICMDEKHQKDFVNWLLNTK (bridge 16-20; not fully specified (C-terminus)) [triple agonist of SEQ ID NO: 59] | < 0.1 | 40.3 | 4
20 | [Acetyl(2-(4-imidazolyl))][Aib]QGTFTSDYSIAMDEKHCKDFVNWLLNTK (bridge 16-20; not fully specified (C-terminus)) [triple agonist of SEQ ID NO: 60] | < 0.1 | 106 | 8.2
21 | Y[Aib]QGTFTSDYSKYLDEKAAKEFVQWLLDHHPSSGQPPPSC (bridge 16-20; not fully specified (C-terminus)) [triple agonist of SEQ ID NO: 75] | 8.5 | 35.1 | 18
22 | H[Aib]QGTFTSDYSKYLDEKRQKEFVNWLLAQC (bridge 16-20; not fully specified (C-terminus)) [triple agonist of SEQ ID NO: 56] | 4.9 | 57.9 | 0.8
23 | [Acetyl(2-(4-imidazolyl))][Aib]QGTFTSDCSKYLDERAAQDFVQWLLDGGPSSGAPPPS (not fully specified (C-terminus)) [triple agonist of SEQ ID NO: 63] | < 0.1 | 15.3 | < 0.1
24 | H[Aib]QGTFTSDVSKYLDGQAAKEFVAWLLKGC (not fully specified (C-terminus)) [triple agonist of SEQ ID NO: 7] | < 0.1 | 13.7 | < 0.1
25 | [Acetyl(2-(4-imidazolyl))][Aib]QGTFTSDKSKYLDERAAQDFVQWLLDGGPSSGAPPPS (not fully specified (C-terminus)) [triple agonist of SEQ ID NO: 62] | < 0.1 | 5.2 | < 0.1
